From patent US20240261333A1 (published 2024)

T1: YTHDF2 (human, UniProt Q9Y5A9 2-579)
T1 construct: also called NP_057342.2
T1 sequence (looked up): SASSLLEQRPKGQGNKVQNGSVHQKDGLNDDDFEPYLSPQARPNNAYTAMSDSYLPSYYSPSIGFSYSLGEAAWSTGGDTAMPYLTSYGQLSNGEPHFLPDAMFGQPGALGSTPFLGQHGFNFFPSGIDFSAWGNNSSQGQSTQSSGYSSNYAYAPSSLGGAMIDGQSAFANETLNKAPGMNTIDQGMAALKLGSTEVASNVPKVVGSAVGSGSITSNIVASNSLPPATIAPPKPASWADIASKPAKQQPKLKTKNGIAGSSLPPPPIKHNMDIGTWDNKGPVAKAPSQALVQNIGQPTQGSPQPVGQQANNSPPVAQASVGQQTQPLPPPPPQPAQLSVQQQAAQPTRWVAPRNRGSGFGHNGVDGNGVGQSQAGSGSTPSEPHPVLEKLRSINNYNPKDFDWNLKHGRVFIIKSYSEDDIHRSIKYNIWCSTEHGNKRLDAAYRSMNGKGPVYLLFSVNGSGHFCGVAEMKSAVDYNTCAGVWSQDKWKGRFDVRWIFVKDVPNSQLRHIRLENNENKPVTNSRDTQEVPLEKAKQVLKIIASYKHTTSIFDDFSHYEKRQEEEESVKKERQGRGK

T2: TTC13 (human, UniProt Q8NBP0-2 1-806, limits assumed)
T2 construct: also called NP_001116307.2 (+5)
T2 sequence (looked up): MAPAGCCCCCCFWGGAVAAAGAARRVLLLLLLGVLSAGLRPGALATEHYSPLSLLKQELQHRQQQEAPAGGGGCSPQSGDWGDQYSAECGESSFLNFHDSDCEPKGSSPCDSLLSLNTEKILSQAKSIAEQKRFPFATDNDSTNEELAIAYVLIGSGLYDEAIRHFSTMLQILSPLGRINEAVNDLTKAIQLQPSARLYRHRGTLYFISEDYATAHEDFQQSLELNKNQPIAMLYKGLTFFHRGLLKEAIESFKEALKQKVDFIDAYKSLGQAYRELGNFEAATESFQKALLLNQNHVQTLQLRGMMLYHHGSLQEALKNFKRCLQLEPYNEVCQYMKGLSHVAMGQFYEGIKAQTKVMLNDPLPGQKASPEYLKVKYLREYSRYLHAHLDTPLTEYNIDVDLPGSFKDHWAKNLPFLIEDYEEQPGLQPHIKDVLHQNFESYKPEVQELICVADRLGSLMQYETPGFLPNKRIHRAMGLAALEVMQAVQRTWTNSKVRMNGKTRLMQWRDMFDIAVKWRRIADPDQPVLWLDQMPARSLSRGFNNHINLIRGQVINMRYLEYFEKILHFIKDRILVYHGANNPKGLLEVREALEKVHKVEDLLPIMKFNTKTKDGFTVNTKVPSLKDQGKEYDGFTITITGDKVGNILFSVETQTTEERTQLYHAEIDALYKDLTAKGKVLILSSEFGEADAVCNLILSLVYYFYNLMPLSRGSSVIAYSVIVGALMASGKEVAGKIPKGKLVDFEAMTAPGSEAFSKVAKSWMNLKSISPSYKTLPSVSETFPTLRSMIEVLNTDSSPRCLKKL


Experiments:
Assay in all cases: co-IP with anti-FLAG, N-FLAG B3GNT2, mass spectrometry
YTHDF2 = biological target: T1, YTHDF2
Description: (§1) Cells were plated in 10-cm cell culture dishes and grown to 60-80% confluency. For each condition, two biological replicates were harvested for co-IP. Cells were washed with PBS and 4 mL of lysis buffer (20 mM HEPES, 1% Triton X-100, 150 mM NaCl, 1 mM EDTA, and 10% glycerol) containing protease inhibitor cocktail was added. Cells were scraped and lysate was incubated at 4° C. under rotary agitation for 1 h. Lysate was centrifuged at 14,000×g for 10 min at 4° C. Supernatant was transferred to a new tube and an aliquot was taken as the input. […] For Western blots, 10 μg/mL Chicken Anti-FLAG (Aves labs ET-DY100) and IgY control (R&D Systems AB-101-C) antibodies were biotinylated (Thermo Fisher Scientific 90407) and added to the respective conditions. Lysates with antibodies were incubated at 4° C. under rotary agitation overnight. For each mL of lysate, 50 μL of Pierce Protein A/G Magnetic Beads (Mass spectrometry; Thermo Fisher Scientific 88803) or Pierce Streptavidin Magnetic Beads (Western blot; Thermo Fisher Scientific 88817) was washed twice with lysis buffer. Lysates with antibodies were added to the beads and incubated at 4° C. under rotary agitation for 4 h. Beads were washed with lysis buffer 3 times and resuspended in lysis buffer for storage.
(§2) Magnetic beads were resuspended in 100 mM Tris pH 7.8, reduced, alkylated and digested with trypsin at 37° ° C. overnight. This solution was subjected to solid phase extraction to concentrate the peptides and remove unwanted reagents followed by injection onto a Shimadzu HPLC with fraction collector. Eight fractions were collected and after concentration were injected on a Waters NanoAcquity HPLC equipped with a self-packed Aeris 3 μm C18 analytical column 0.075 mm by 20 cm, (Phenomenex). Peptides were eluted using standard reverse-phase gradients. The effluent from the column was analyzed using a Thermo Orbitrap Elite mass spectrometer (nanospray configuration) operated in a data dependent manner for 54 minutes. The resulting fragmentation spectra were correlated against the known database using Proteome Discover 1.4 (Thermo Fisher Scientific).

GBF1 = biological target: T3, GBF1 (human, UniProt Q92538 1-1860, limits assumed)
T3 construct: also called NP_001186307.1 (+13)
Description: as §1, §2

SYNM = biological target: T4, SYNM (human, UniProt O15061 1-1565)
T4 construct: also called NP_663780.2
Description: as §1, §2

YBX1 = biological target: T5, YBX1 (human, UniProt P67809 2-324)
T5 construct: also called NP_004550.2
Description: as §1, §2

RPL38 = RPL38 (human, UniProt P63173 1-70)
Description: as §1, §2

TTC13 = biological target: T2, TTC13
Description: as §1, §2

RPS20 = RPS20 (human, UniProt P60866 2-119)
Description: as §1, §2

TPM2 = biological target: T6, TPM2 (human, UniProt P07951-2 1-284, limits assumed)
T6 construct: also called NP_001288155.1
Description: as §1, §2

RPL7A = RPL7A (human, UniProt P62424 1-266)
Description: as §1, §2

RPL6 = RPL6 (human, UniProt Q02878 2-288)
Description: as §1, §2

Binder | co-IP mass spectrometry count (YTHDF2) | co-IP mass spectrometry count (GBF1) | co-IP mass spectrometry count (SYNM) | co-IP mass spectrometry count (YBX1) | co-IP mass spectrometry count (RPL38) | co-IP/MS count, N-term FLAG (TTC13) | co-IP/MS count, N-term FLAG (RPS20) | co-IP/MS count, N-term FLAG (TPM2) | co-IP/MS count, N-term FLAG (RPL7A) | co-IP/MS count, N-term FLAG (RPL6)
N-terminal FLAG tagged B3GNT2 (enzyme, human, UniProt Q9NY97 1-397, looked up, FLAG-tagged ORF overexpressed in cells; pulled down from lysate with mouse anti-FLAG; also called N-FLAG B3GNT2; N-term FLAG; not shown: N-terminal FLAG tag) MSVGRRRIKLLGILMMANVFIYFIMEVSKSSSQEKNGKGEVIIPKEKFWKISTPPEAYWNREQEKLNRQYNPILSMLTNQTGEAGRLSNISHLNYCEPDLRVTSVVTGFNNLPDRFKDFLLYLRCRNYSLLIDQPDKCAKKPFLLLAIKSLTPHFARRQAIRESWGQESNAGNQTVVRVFLLGQTPPEDNHPDLSDMLKFESEKHQDILMWNYRDTFFNLSLKEVLFLRWVSTSCPDTEFVFKGDDDVFVNTHHILNYLNSLSKTKAKDLFIGDVIHNAGPHRDKKLKYYIPEVVYSGLYPPYAGGGGFLYSGHLALRLYHITDQVHLYPIDDVYTGMCLQKLGLVPEKHKGFRTFDIEEKNKNNICSYVDLMLVHSRKPQEMIDIWSQLQSAHLKC | 5 | 0 | 5 | 2 | 9 | – | – | – | – | –
N-terminal FLAG tagged B3GNT2 (enzyme, human, UniProt Q9NY97 1-397, looked up, FLAG-tagged ORF overexpressed in A375 cells; pulled down from the lysate with mouse anti-FLAG; also called N-FLAG B3GNT2; N-term FLAG; not shown: N-terminal FLAG tag) MSVGRRRIKLLGILMMANVFIYFIMEVSKSSSQEKNGKGEVIIPKEKFWKISTPPEAYWNREQEKLNRQYNPILSMLTNQTGEAGRLSNISHLNYCEPDLRVTSVVTGFNNLPDRFKDFLLYLRCRNYSLLIDQPDKCAKKPFLLLAIKSLTPHFARRQAIRESWGQESNAGNQTVVRVFLLGQTPPEDNHPDLSDMLKFESEKHQDILMWNYRDTFFNLSLKEVLFLRWVSTSCPDTEFVFKGDDDVFVNTHHILNYLNSLSKTKAKDLFIGDVIHNAGPHRDKKLKYYIPEVVYSGLYPPYAGGGGFLYSGHLALRLYHITDQVHLYPIDDVYTGMCLQKLGLVPEKHKGFRTFDIEEKNKNNICSYVDLMLVHSRKPQEMIDIWSQLQSAHLKC | – | – | – | – | – | 0 | 4 | 0 | 8 | 10
